Assay results published in patent US20240167070.

Tests used:
[1] = molecular target: T1, model peptide 4, AIYRRGRLYRRNSL
T1 chain: AIYRRGRLYRRNSL

model peptide 5, …(OH)SL = molecular target: T2, model peptide 5, …(OH)SL
T2 chain: AIYRRGRLYRRXSL

[2] = molecular target: T3, model peptide 6, AIYRRGRLYRRDSL
T3 chain: AIYRRGRLYRRDSL

[3] = molecular target: T4, model peptide 1, AIYRRGRLYRRNHV
T4 chain: AIYRRGRLYRRNHV

model peptide 2, …(OH)HV = molecular target: T5, model peptide 2, …(OH)HV
T5 chain: AIYRRGRLYRRXHV

[4] = molecular target: T6, model peptide 3, AIYRRGRLYRRDHV
T6 chain: AIYRRGRLYRRDHV

B1: VyPAL2 (protein)
chain: DSIGTRWAVLIAGSKGYHNYRHQADVCHMYQILRKGGVKDENIIVFMYDDIAYNESNPFPGIIINKPGGENVYKGVPKDYTGEDINNVNFLAAILGNKSAIIGGSGKVLDTSPNDHIFIYYADHGAPGKIGMPSKPYLYADDLVDTLKQKAATGTYKSMVFYVEACNAGSMFEGLLPEGTNIYAMAASNSTEGSWITYCPGTPDFPPEFDVCLGDLWSITFLEDCDAHNLRTETVHQQFELVKKKIAYASTVSQYGDIPISKDSLSVYM
- Km [1]: 42.5 µM
- Km (model peptide 5, …(OH)SL): 120 µM
- Km [2]: 2070 µM

B2: butelase-1 (protein)
chain: VEGTRWAVLVAGSKGYVNYRHQADVCHAYQILKKGGLKDENIIVFMYDDIAYNESNPHPGVIINHPYGSDVYKGVPKDYVGEDINPPNFYAVLLANKSALTGTGSGKVLDSGPNDHVFIYYTDHGGAGVLGMPSKPYIAASDLNDVLKKKHASGTYKSIVFYVESCESGSMFDGLLPEDHNIYVMGASDTGESSWVTYCPLQHPSPPPEYDVCVGDLFSVAWLEDCDVHNLQTETFQQQYEVVKNKTIVALIEDGTHVVQYGDVGLSKQTLFVYMGTDPAN
- Km [3]: 67.5 µM
- Km (model peptide 2, …(OH)HV): 98.8 µM
- Km [4]: 630 µM
